Changes are numbered by the printed parent chain. Values belong to the binder of their own block, whether it stands above or below them.
Columns and labels:
[1] = target: T1, Human IL2Rγ extracellular domain expressed with a C-terminal myc-myc-hexahistidine tag (human); assay: SPR Biacore 4000, mAb captured by anti-hFc, HBS-ET, 25C
T1 construct: also called hIL-2Rg-MMH; hIL-2RG-MMH
T1 chain: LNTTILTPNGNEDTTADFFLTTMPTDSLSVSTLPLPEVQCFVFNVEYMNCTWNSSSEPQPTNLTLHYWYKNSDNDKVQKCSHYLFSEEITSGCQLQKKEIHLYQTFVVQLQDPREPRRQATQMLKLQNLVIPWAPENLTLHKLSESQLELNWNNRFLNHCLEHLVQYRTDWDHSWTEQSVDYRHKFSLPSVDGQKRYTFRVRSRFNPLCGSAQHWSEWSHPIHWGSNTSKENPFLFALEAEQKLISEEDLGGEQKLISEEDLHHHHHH
Procedure: (§1) Equilibrium dissociation constants (KD values) for IL-2Rγ binding to purified anti-IL2Rγ monoclonal antibodies were determined using a Biacore 4000 instrument equipped with a real-time surface plasmon resonance biosensor. All binding studies were performed in 10 mM HEPES, 150 mM NaCl, 3 mM EDTA, and 0.05% v/v Surfactant Tween-20, pH 7.4 (HBS-ET) running buffer at 25° C. and 37° C. The Biacore sensor surface was first derivatized by amine coupling with a monoclonal mouse anti-human Fc antibody (GE, # BR-1008-39) to capture anti-IL2Rγ monoclonal antibodies.
(§2) The dissociation of monoclonal antibody bound IL2Rγ reagents were monitored for 8-10 minutes in HBS-ET running buffer. Kinetic association (kₐ) and dissociation (kd) rate constants were determined by fitting the real-time sensorgrams to a 1:1 binding model using Scrubber 2.0c curve fitting software. Binding dissociation equilibrium constants (KD) and dissociative half-lives (t_{1/2}) were calculated from the kinetic rate constants as: […]

[2] = target: T2, Macaca fascicularis IL2Rγ extracellular domain expressed with a C-terminal myc-myc-hexahistidine tag (Macaca fascicularis); assay: as above
T2 construct: also called mfIL-2Rg-MMH; mfIL-2RG-MMH
T2 chain: T1 chain with T14A, A16T, T22S, H141R, T228S
Procedure: as §1, §2

[3] = target: T1, Human IL2Rγ extracellular domain …; assay: SPR Biacore 4000, mAb captured by anti-hFc, HBS-ET, 37C
Procedure: as §1, §2

[4] = target: T2, Macaca fascicularis IL2Rγ extracellular …; assay: SPR Biacore 4000, mAb captured by anti-hFc, 37C, dissociation in PBS-T pH 7.4
Procedure: (§3) The dissociation rate constant (kd) for binding of IL-2Rγ reagents to purified anti-IL2Rγ monoclonal antibodies was determined using a real-time surface plasmon resonance based Biacore 4000 biosensor platform. […] The CM5 Biacore sensor surface derivatized by amine coupling with monoclonal mouse anti-human Fc antibody (GE, Catalog # BR-1008-39) was used to capture anti-IL2Rγ monoclonal antibodies expressed with human IgG4 Fc. All the IL2Rγ reagents were expressed with a C-terminal myc-myc-hexahistidine tag (subsequently referred to with a -MMH suffix). […] The dissociation of bound IL-2Rg-MMH was performed in PBS-T-pH7.4 or PBS-T-pH6.0 running buffers for 6 minutes.
(§4) Dissociation rate constants (kd) in two running buffers were determined by fitting the real-time binding sensorgrams to a 1:1 binding model using Scrubber 2.0c curve-fitting software. Values of dissociation rate for […] mAb binding to hIL-2RG-MMH and mfIL-2RG-MMH at 25° C. and 37° C. in PBS-T-pH7.4 and PBS-T-pH6.0 is shown in Table 2-1 through Table 2-8.

[5] = target: T2, Macaca fascicularis IL2Rγ extracellular …; assay: SPR Biacore 4000, mAb captured by anti-hFc, 37C, dissociation in PBS-T pH 6.0
Procedure: as §3, §4

[6] = target: T3, Human IL2Rγ extracellular domain expressed with a C-terminal myc-myc-hexahistidine tag (human); assay: SPR, captured mAb, 25C, dissociation pH 7.4
T3 construct: also called hIL-2Rg-MMH; hIL-2RG-MMH
T3 chain: T1 chain
Procedure: as §3, §4

[7] = target: T4, Macaca fascicularis IL2Rγ extracellular domain expressed with a C-terminal myc-myc-hexahistidine tag (Macaca fascicularis); assay: SPR, captured mAb, 25C, dissociation pH 7.4
T4 construct: also called mfIL-2Rg-MMH; mfIL-2RG-MMH
T4 chain: T1 chain with T14A, A16T, T22S, H141R, T228S
Procedure: as §3, §4

[8] = target: T3, Human IL2Rγ extracellular domain …; assay: SPR, captured mAb, 25C, dissociation pH 6.0
Procedure: as §3, §4

[9] = target: T4, Macaca fascicularis IL2Rγ extracellular …; assay: SPR, captured mAb, 25C, dissociation pH 6.0
Procedure: as §3, §4

[10] = target: T3, Human IL2Rγ extracellular domain …; assay: SPR, captured mAb, 37C, dissociation pH 7.4
Procedure: as §3, §4

[11] = target: T3, Human IL2Rγ extracellular domain …; assay: SPR, captured mAb, 37C, dissociation pH 6.0
Procedure: as §3, §4

100 nM Ag Bound [1]: 68 RU | Kd [1]: 1.02 nM | koff [1]: 0.000227 s⁻¹ | kon [1]: 222000 M⁻¹ s⁻¹ | t1/2 [1]: 51 min | 100 nM Ag Bound [2]: 81 RU | Kd [2]: 2.28 nM | koff [2]: 0.000304 s⁻¹ | kon [2]: 133000 M⁻¹ s⁻¹ | t1/2 [2]: 38 min | 100 nM Ag Bound [3]: 99 RU | Kd [3]: 3.4 nM | koff [3]: 0.00108 s⁻¹ | kon [3]: 319000 M⁻¹ s⁻¹ | t1/2 [3]: 11 min | 100 nM Ag Bound (RU) [4]: 119 RU | koff [4]: 0.00051 s⁻¹ | t1/2 [4]: 23 min | 100 nM Ag Bound (RU) [5]: 122 RU | koff [5]: 0.00139 s⁻¹ | t1/2 [5]: 8 min
B1: H4H13538P (antibody, human IgG4 S228P, kappa, V domains shown)
VH: EVQLVESGGGLVQPGGSLGLSCAASGFTFSNYAMSWVRQAPGKGLEWVSAVSGGGGGTYYADSVKGRFTISRDNSKNTVLLQMNSLRAEDTAVYYCARGRTGGLDYWGPGTLVTVSS
VL: DVVMTQSPLSLPVIFGQPASISCRSSQSLVDSDGNTYLNWLQQRPGQSPRRLIYEVSNRDSGVPDRFSGSGSGTDFTLTISRVEAEDVGIYYCMQGTRWPPTFGGGTKVEIKR
notes: anti-IL2Rγ monoclonal antibody expressed with human IgG4 Fc

100 nM Ag Bound (RU) [6]: 57 RU | koff [6]: 0.000602 s⁻¹ | t1/2 [6]: 19 min | 100 nM Ag Bound (RU) [7]: 67 RU | koff [7]: 0.000584 s⁻¹ | t1/2 [7]: 20 min | 100 nM Ag Bound (RU) [8]: 45 RU | koff [8]: 0.00175 s⁻¹ | t1/2 [8]: 7 min | 100 nM Ag Bound (RU) [9]: 52 RU | koff [9]: 0.0017 s⁻¹ | t1/2 [9]: 7 min | 100 nM Ag Bound (RU) [10]: 54 RU | koff [10]: 0.0041 s⁻¹ | t1/2 [10]: 2.8 min | 100 nM Ag Bound (RU) [11]: 39 RU | koff [11]: 0.00827 s⁻¹ | t1/2 [11]: 1.4 min
B2: H4H13544P2 (antibody, human IgG4 S228P, kappa, V domains shown)
VH: QLQLQESGPGLVKPSETLSLTCTVSGGSISIKNYYWGWIRQPPGKGLEWIGSIYYSGTTYYNPSLKSRVTISVDTSKNQFSLKLSSVTAADTAVYHCARHGYSYGHGWFDPWGQGTLVTVSS
VL: not shown
notes: anti-IL2Rgamma mAb expressed with human IgG4 Fc

100 nM Ag Bound [1]: 51 RU | Kd [1]: 28.7 nM | koff [1]: 0.00135 s⁻¹ | kon [1]: 47200 M⁻¹ s⁻¹ | t1/2 [1]: 9 min | 100 nM Ag Bound [2]: 60 RU | Kd [2]: 24.6 nM | koff [2]: 0.00127 s⁻¹ | kon [2]: 51700 M⁻¹ s⁻¹ | t1/2 [2]: 9 min | 100 nM Ag Bound [3]: 49 RU | Kd [3]: 103 nM | koff [3]: 0.00782 s⁻¹ | kon [3]: 76000 M⁻¹ s⁻¹ | t1/2 [3]: 1.5 min | 100 nM Ag Bound (RU) [4]: 58 RU | koff [4]: 0.00362 s⁻¹ | t1/2 [4]: 3.2 min | 100 nM Ag Bound (RU) [5]: 43 RU | koff [5]: 0.00781 s⁻¹ | t1/2 [5]: 1.5 min
B3: H4H13544P2 (antibody, human IgG4 S228P, kappa, V domains shown)
VH: B2 VH
VL: not shown
notes: as for B1

100 nM Ag Bound (RU) [6]: 15 RU | koff [6]: 0.0213 s⁻¹ | t1/2 [6]: 0.5 min | 100 nM Ag Bound (RU) [7]: 30 RU | koff [7]: 0.00751 s⁻¹ | t1/2 [7]: 1.5 min | 100 nM Ag Bound (RU) [8]: 11 RU | koff [8]: 0.0334 s⁻¹ | t1/2 [8]: 0.3 min | 100 nM Ag Bound (RU) [9]: 20 RU | koff [9]: 0.00935 s⁻¹ | t1/2 [9]: 1.2 min | 100 nM Ag Bound (RU) [10]: 7 RU | 100 nM Ag Bound (RU) [11]: 6 RU
B4: H4H13545P2 (antibody, human IgG4 S228P, kappa, V domains shown)
VH: QVQLQQSGPGLVKPSQTLSLTCDISGDSVSSNIATWNWIRQSPSRGLEWLGRTYYRSKWYKDYAVSVKSRITINPDTSKNQFSLQVNSVTPEDTAVYYCARMTGPRYYFEYWGQGTLVTVSS
VL: not shown
notes: as for B2

100 nM Ag Bound [1]: 12 RU | Kd [1]: 336 nM | koff [1]: 0.0575 s⁻¹ | kon [1]: 171000 M⁻¹ s⁻¹ | t1/2 [1]: 0.2 min | 100 nM Ag Bound [2]: 26 RU | Kd [2]: 143 nM | koff [2]: 0.014 s⁻¹ | kon [2]: 97800 M⁻¹ s⁻¹ | t1/2 [2]: 0.8 min | 100 nM Ag Bound [3]: 7 RU | Kd [3]: 113 nM | koff [3]: 0.0691 s⁻¹ | kon [3]: 611000 M⁻¹ s⁻¹ | t1/2 [3]: 0.2 min | 100 nM Ag Bound (RU) [4]: 17 RU | 100 nM Ag Bound (RU) [5]: 13 RU
B5: H4H13545P2 (antibody, human IgG4 S228P, kappa, V domains shown)
VH: B4 VH
VL: not shown
notes: as for B1

100 nM Ag Bound (RU) [6]: 29 RU | koff [6]: 0.0133 s⁻¹ | t1/2 [6]: 0.9 min | 100 nM Ag Bound (RU) [7]: 43 RU | koff [7]: 0.00782 s⁻¹ | t1/2 [7]: 1.5 min | 100 nM Ag Bound (RU) [8]: 24 RU | koff [8]: 0.0297 s⁻¹ | t1/2 [8]: 0.4 min | 100 nM Ag Bound (RU) [9]: 32 RU | koff [9]: 0.0185 s⁻¹ | t1/2 [9]: 0.6 min | 100 nM Ag Bound (RU) [10]: 14 RU | koff [10]: 0.0308 s⁻¹ | t1/2 [10]: 0.4 min | 100 nM Ag Bound (RU) [11]: 14 RU | koff [11]: 0.0312 s⁻¹ | t1/2 [11]: 0.4 min
B6: H4H12926P2 (antibody, human IgG4 S228P, kappa, V domains shown)
VH: QVQLQQSGPGLVKPSQTLSLTCAISGDSVSSNIAAWNWIRLSPSRGLEWLGRTFFRSTWFYDYSLSVKGRITINPDTSKNQFSLHLNSVTPEDAAVYYCARTGRRWSLDYWGQGTLVTVSS
VL: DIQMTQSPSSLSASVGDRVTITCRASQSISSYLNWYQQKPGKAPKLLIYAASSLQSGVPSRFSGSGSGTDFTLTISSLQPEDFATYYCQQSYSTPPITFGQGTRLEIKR
notes: as for B2

100 nM Ag Bound [1]: 72 RU | Kd [1]: 2.41 nM | koff [1]: 0.000252 s⁻¹ | kon [1]: 105000 M⁻¹ s⁻¹ | t1/2 [1]: 46 min | 100 nM Ag Bound [2]: 82 RU | Kd [2]: 1.85 nM | koff [2]: 0.000315 s⁻¹ | kon [2]: 170000 M⁻¹ s⁻¹ | t1/2 [2]: 37 min | 100 nM Ag Bound [3]: 103 RU | Kd [3]: 5.01 nM | koff [3]: 0.00078 s⁻¹ | kon [3]: 156000 M⁻¹ s⁻¹ | t1/2 [3]: 15 min | 100 nM Ag Bound (RU) [4]: 100 RU | koff [4]: 0.000512 s⁻¹ | t1/2 [4]: 23 min | 100 nM Ag Bound (RU) [5]: 91 RU | koff [5]: 0.0015 s⁻¹ | t1/2 [5]: 8 min
B7: H4H13541P (antibody, human IgG4 S228P, kappa, V domains shown)
VH: EVQLVESGGGVVRPGGSLRLSCAASGFIFDDYDMSWVRQPPGRGLEWVSGIDWFGGTRGYADSMKGRFTISRDNAKNSLYLQMNSLRVEDTAFYYCARGGAIVGAVTPFDYWGQGTLVTVSS
VL: DIQMTQSPSSLSASVGNRVTLSCRASQSINTYLSWYQQRPGKAPKLLIYAASSLQSGVPSRFSGSGAGTDFTLTISSLQPEDFATYYCQQSYSAPLTFGGGTKVEIKR
notes: as for B1

100 nM Ag Bound (RU) [6]: 124 RU | koff [6]: 0.000479 s⁻¹ | t1/2 [6]: 24 min | 100 nM Ag Bound (RU) [7]: 130 RU | koff [7]: 0.000385 s⁻¹ | t1/2 [7]: 30 min | 100 nM Ag Bound (RU) [8]: 136 RU | koff [8]: 0.00367 s⁻¹ | t1/2 [8]: 3 min | 100 nM Ag Bound (RU) [9]: 131 RU | koff [9]: 0.00305 s⁻¹ | t1/2 [9]: 4 min | 100 nM Ag Bound (RU) [10]: 133 RU | koff [10]: 0.00302 s⁻¹ | t1/2 [10]: 4 min | 100 nM Ag Bound (RU) [11]: 133 RU | koff [11]: 0.0143 s⁻¹ | t1/2 [11]: 0.8 min
B8: H4H12924P2 (antibody, human IgG4 S228P, kappa, V domains shown)
VH: EVQLVESGGGLVQPGRSLRLSCAASGFTLEDYAMHWVRQAPGKGLEWVSGISWNRGSTGYADSVKGRFTISRDNAKNSLYLQMTSLRAEDTALYYCAKGFYSMDVWGQGTTVTVSS
VL: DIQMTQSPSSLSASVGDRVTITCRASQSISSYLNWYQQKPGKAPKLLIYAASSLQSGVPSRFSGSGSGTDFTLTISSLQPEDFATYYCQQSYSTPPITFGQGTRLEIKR
notes: as for B2
